Test results as given in PMC3155264 (Cell, 2011).

Legend:
crystal structure = molecular target: the molecule itself; experiment: crystal structure
SEC = molecular target: the molecule itself; experiment: SEC

B1: MinE^I24N*-h (domain or fragment, E. coli, UniProt P0A734 12-88, looked up)
chain: KNTANIAKERLQNIVAERRRSDAEPHYLPQLRKDILEVICKYVQIDPEMVTVQLEQKDGDISILELNVTLPEAEELK
Q: Does B1 bind (crystal structure)?
A: Result: binds

B2: MinE^21-88 (domain or fragment, E. coli, UniProt P0A734 21-88, looked up)
chain: RLQIIVAERRRSDAEPHYLPQLRKDILEVICKYVQIDPEMVTVQLEQKDGDISILELNVTLPEAEELK
Q: Does B2 bind (SEC)?
A: Result: binds
